# T1: GFP-SNX4, O95219
# T1 chain: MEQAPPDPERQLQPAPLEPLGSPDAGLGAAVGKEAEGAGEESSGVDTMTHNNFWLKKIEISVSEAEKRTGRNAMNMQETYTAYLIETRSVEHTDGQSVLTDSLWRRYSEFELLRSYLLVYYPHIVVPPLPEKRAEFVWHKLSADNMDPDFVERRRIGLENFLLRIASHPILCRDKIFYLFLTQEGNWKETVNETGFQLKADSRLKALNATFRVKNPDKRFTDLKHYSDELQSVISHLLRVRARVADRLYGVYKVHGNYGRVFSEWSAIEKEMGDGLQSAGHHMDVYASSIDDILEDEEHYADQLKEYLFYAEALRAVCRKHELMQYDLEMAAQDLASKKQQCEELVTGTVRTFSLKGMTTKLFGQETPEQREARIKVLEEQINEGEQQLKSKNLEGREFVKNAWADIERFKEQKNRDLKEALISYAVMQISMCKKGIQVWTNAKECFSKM
# Tests used:
# [1] = target: GFP-SNX4 (UniProt O95219); test: co-IP
# [2] = target: T1, GFP-SNX4, O95219; test: co-IP; settings: remark: other sources report otherwise
ratio of HA to GFP band intensity [1],ratio of HA to GFP band intensity [2],Molecule
0.65,–,HA-SNX32 A226E (from UniProt Q86XE0 1-403) (natural protein)
–,0.92,"HA-SNX32 FL, Q86XE0 1-403 (natural protein) METYAEVGKEGKPSCASVDLQGDSSLQVEISDAVSERDKVKFTVQTKSCLPHFAQTEFSVVRQHEEFIWLHDAYVENEEYAGLIIPPAPPRPDFEASREKLQKLGEGDSSVTREEFAKMKQELEAEYLAIFKKTVAMHEVFLQRLAAHPTLRRDHNFFVFLEYGQDLSVRGKNRKELLGGFLRNIVKSADEALITGMSGLKEVDDFFEHERTFLLEYHTRIRDACLRADRVMRAHKCLADDYIPISAALSSLGTQEVNQLRTSFLKLAELFERLRKLEGRVASDEDLKLSDMLRYYMRDSQAAKDLLYRRLRALADYENANKALDKARTRNREVRPAESHQQLCCQRFERLSDSAKQELMDFKSRRVSSFRKNLIELAELELKHAKASTLILRNTLVALKGEP"
